Source: publication PMC10504565

Target: endogenous POLR2A/RPB1, the largest subunit of RNA pol II, of HepG2 cells (human (endogenous in HepG2)) (UniProt P24928)
Assay: proximity ligation; fixed HepG2 cells (SHP-1 WT; SHP-1 KO as negative control), anti-SHP-1 and anti-RPB1 antibodies, Duolink In Situ kit; nuclear dots counted in at least 400 nuclei

Sequence of endogenous SHP-1 of HepG2 cells, P29350 1-595 (natural protein; other documents disagree on this pair) (P29350 whole entry): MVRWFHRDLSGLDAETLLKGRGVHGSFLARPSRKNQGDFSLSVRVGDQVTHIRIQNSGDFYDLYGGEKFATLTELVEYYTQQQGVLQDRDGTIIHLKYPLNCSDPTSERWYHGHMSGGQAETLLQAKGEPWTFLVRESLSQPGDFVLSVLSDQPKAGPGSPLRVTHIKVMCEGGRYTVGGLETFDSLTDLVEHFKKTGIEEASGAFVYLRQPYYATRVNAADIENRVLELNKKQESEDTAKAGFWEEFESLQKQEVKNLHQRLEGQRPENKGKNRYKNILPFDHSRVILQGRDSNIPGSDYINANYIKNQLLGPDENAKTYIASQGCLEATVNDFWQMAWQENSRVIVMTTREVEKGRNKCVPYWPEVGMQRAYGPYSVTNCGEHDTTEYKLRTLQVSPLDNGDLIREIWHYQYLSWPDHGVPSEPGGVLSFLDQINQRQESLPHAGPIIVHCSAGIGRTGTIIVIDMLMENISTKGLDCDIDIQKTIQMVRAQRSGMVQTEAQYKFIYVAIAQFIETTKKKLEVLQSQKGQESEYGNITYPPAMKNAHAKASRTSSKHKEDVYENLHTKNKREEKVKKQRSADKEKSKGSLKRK

In the case of “endogenous SHP-1 of HepG2 cells, P29350 1-595 (natural protein; other documents disagree on this pair)”, the percent of nuclei with PLA dots is reported as 44 % of nuclei.
